Test results from patent US20220195052A1.

Target: human αvβ1 integrin on cells (human) (UniProt P06756)
Assay: inhibition of adhesion of BCECF-labelled αvβ1-transfected cells to plate-coated LAP

Chain of human αvβ1 integrin on cells (human) (P06756 31-1048 limits assumed, chain 1 of 2): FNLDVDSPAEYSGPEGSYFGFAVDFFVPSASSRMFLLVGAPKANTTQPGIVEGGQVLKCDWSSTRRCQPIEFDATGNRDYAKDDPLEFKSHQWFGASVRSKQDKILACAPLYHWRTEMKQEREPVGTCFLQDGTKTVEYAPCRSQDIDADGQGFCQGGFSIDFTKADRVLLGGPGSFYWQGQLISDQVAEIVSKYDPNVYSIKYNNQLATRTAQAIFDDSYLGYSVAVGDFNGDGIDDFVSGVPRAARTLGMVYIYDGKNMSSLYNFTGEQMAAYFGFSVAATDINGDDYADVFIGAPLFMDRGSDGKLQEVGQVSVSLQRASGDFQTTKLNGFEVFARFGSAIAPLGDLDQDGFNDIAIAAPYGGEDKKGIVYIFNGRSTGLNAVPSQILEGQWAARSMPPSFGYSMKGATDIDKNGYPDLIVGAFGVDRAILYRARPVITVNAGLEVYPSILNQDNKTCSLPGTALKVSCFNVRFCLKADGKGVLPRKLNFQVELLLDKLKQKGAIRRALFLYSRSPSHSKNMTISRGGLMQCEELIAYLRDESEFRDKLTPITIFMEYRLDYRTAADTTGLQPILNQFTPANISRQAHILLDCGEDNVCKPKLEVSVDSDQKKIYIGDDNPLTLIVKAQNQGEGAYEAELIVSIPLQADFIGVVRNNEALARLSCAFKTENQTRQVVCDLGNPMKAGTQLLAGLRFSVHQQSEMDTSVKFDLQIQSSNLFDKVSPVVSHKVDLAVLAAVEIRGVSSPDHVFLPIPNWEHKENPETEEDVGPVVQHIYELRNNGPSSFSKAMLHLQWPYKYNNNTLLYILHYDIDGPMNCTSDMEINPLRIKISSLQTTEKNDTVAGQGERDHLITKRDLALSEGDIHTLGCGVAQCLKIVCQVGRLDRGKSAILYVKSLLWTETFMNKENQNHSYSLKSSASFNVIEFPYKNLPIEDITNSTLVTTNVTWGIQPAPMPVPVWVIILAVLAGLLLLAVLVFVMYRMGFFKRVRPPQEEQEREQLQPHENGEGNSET
Chain of human αvβ1 integrin on cells (human) (chain, as listed by the source limits assumed, chain 2 of 2): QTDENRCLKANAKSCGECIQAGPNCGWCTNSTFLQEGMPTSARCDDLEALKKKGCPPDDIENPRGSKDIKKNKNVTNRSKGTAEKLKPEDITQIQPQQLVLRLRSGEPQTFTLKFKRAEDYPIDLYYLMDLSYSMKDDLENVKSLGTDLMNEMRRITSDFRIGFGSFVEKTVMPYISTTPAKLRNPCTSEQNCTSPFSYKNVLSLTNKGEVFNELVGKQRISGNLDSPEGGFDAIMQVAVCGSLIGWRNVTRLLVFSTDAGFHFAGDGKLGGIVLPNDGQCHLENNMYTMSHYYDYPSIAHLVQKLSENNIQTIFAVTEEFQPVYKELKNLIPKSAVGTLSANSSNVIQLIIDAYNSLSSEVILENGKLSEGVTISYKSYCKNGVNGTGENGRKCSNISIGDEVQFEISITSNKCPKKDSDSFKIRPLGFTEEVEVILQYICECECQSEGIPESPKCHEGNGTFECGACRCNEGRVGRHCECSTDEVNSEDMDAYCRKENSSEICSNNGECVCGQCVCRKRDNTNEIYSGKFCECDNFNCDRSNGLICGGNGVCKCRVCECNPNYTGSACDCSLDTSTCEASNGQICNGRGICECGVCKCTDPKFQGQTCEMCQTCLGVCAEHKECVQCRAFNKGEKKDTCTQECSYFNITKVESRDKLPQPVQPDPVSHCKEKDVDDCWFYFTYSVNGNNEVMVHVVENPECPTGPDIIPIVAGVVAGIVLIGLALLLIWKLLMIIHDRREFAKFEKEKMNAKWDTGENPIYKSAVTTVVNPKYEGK

IC50: 1 nM
Substance: L230 (pan-αv commercial antibody)
